Common to all, as to test: ITC; 0.5–1 mM peptide titrated into 10–40 μM ecdTDR; 25°C; 10 mM sodium citrate, 100 mM NaCl, pH 5.5; fitted to one set of binding sites; MicroCal Auto-iTC200
Common to all, as to conditions: both partners purified
On the technique in general: In ITC the heat of successive injections is recorded.

Test [1] has as its target T1, ecdTDR S162A mutant (Arabidopsis thaliana, UniProt Q9FII5 30-642, S162A).
T1 construct: TDR/PXY of A. thaliana, extracellular domain, residues 30-642; source: High Five insect cells (baculovirus), secreted, purified as the wild type (Ni-NTA, size-exclusion chromatography)
T1 sequence (looked up): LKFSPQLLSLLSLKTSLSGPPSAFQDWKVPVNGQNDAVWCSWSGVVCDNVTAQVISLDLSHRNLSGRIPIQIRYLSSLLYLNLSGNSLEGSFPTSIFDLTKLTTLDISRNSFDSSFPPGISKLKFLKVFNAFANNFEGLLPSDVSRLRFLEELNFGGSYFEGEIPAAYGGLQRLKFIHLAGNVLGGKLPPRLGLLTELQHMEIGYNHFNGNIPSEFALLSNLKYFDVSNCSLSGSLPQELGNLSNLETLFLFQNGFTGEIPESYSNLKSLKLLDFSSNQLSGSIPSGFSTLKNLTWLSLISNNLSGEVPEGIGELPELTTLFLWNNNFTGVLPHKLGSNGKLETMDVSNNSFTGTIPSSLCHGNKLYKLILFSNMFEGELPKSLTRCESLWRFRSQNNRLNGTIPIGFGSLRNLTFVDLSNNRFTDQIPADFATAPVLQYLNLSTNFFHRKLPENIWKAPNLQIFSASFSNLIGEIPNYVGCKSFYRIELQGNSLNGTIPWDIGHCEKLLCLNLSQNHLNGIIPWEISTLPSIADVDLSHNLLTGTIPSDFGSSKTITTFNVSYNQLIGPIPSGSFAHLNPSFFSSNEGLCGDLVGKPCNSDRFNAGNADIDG

Test [2] concerns the target T2, ecdTDR F279/F281 double alanine mutant (Arabidopsis thaliana, UniProt Q9FII5 30-642, F279 to alanine | F281 to alanine).
T2 construct: TDR/PXY of A. thaliana, extracellular domain, residues 30-642; also called F279A/F281A; source: High Five insect cells (baculovirus), secreted, purified as the wild type (Ni-NTA, size-exclusion chromatography)
T2 sequence (looked up): T1 sequence (looked up) with A133S, F250A, F252A

For test [3], the target named is T3, ecdTDR W353A mutant (Arabidopsis thaliana, UniProt Q9FII5 30-642, W353A).
T3 construct: TDR/PXY of A. thaliana, extracellular domain, residues 30-642; source: High Five insect cells (baculovirus), secreted, purified as the wild type (Ni-NTA, size-exclusion chromatography)
T3 sequence (looked up): T1 sequence (looked up) with A133S, W324A

The target of test [4] is T4, ecdTDR Q282A mutant (Arabidopsis thaliana, UniProt Q9FII5 30-642, Q282A).
T4 construct: TDR/PXY of A. thaliana, extracellular domain, residues 30-642; source: High Five insect cells (baculovirus), secreted, purified as the wild type (Ni-NTA, size-exclusion chromatography)
T4 sequence (looked up): T1 sequence (looked up) with A133S, Q253A

Changes are numbered by the printed parent chain. Square brackets hold non-standard residues; d marks the D form. Ends that are not written are not given here. Hyp = O=C(O)[C@@H]1C[C@@H](O)CN1

B1: Tracheary Element Differentiation Inhibitory Factor (TDIF) peptide (peptide)
peptide: HEV[Hyp]SG[Hyp]NPISN
notes: TDIF, the 12-residue CLE peptide processed from CLE41 and CLE44 of A. thaliana; printed as HEV(Hyp)SG(Hyp)NPISN; numbers count on: the 12-residue peptide; CLE44 encodes the same peptide; also called wild type TDIF; wtTDIF; source: synthetic peptide (peptide 2.0)
Regarding B1, the binding result in test [1] and in test [4] was “binds” each time. For the same molecule, the “fold decrease in binding against wild-type ecdTDR” value in test [2] is 8.6 fold. The “fold lower binding than wild-type ecdTDR” value in test [3] came out at 8.4 fold.

The record behind these values is article PMC5383425, “Differential CLE peptide perception by plant receptors implicated from structural and functional analyses of TDIF-TDR interactions” (PLoS ONE, 2017).
